Laboratory results taken from patent publication US20050019345A1 (published 2005).

Columns and labels:
BSA (bovine) = BSA (bovine) (UniProt P02769); test: enzyme-linked binding assay (ELISA format), non-conjugated HRPO on immobilized BSA
human collagen type I = target: T1, human collagen type I (human, UniProt P02452 162-1218; P08123 80-1119, limits assumed); test: enzyme-linked binding assay (ELISA format), non-conjugated HRPO on immobilized matrix protein
T1 construct: Bought (Gibco BRL), immobilized on plates; also called type I collagen; collagen type 1
T1 sequence (P02452 162-1218 limits assumed, chain 1 of 2): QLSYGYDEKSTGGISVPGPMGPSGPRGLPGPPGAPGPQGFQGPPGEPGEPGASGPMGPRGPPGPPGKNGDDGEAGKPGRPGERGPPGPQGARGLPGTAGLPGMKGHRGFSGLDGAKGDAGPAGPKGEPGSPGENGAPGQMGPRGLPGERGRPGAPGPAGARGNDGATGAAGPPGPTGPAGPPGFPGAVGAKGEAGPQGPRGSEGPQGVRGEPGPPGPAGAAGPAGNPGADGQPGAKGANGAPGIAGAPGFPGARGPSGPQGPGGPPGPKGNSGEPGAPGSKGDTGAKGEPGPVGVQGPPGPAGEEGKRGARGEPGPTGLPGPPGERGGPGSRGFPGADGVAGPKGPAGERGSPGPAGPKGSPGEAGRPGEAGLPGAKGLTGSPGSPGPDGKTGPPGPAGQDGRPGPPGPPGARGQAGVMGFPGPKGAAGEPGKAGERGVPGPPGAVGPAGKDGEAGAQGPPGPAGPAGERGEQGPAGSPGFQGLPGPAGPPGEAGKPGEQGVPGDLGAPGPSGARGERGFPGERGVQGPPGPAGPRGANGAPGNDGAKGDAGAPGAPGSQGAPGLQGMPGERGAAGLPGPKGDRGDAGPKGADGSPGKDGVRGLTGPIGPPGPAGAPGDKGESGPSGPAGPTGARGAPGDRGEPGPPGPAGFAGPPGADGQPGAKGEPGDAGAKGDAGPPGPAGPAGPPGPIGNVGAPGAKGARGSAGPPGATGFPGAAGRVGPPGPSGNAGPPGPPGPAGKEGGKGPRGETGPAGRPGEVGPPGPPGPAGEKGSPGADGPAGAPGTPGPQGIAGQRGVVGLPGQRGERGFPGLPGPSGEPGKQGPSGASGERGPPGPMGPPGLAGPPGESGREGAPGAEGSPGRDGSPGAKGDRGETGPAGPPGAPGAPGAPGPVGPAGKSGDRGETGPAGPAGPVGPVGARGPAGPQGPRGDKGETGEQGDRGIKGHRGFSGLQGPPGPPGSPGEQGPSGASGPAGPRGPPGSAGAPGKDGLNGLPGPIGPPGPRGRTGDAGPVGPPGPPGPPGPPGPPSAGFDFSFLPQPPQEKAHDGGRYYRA
T1 sequence (P08123 80-1119 limits assumed, chain 2 of 2): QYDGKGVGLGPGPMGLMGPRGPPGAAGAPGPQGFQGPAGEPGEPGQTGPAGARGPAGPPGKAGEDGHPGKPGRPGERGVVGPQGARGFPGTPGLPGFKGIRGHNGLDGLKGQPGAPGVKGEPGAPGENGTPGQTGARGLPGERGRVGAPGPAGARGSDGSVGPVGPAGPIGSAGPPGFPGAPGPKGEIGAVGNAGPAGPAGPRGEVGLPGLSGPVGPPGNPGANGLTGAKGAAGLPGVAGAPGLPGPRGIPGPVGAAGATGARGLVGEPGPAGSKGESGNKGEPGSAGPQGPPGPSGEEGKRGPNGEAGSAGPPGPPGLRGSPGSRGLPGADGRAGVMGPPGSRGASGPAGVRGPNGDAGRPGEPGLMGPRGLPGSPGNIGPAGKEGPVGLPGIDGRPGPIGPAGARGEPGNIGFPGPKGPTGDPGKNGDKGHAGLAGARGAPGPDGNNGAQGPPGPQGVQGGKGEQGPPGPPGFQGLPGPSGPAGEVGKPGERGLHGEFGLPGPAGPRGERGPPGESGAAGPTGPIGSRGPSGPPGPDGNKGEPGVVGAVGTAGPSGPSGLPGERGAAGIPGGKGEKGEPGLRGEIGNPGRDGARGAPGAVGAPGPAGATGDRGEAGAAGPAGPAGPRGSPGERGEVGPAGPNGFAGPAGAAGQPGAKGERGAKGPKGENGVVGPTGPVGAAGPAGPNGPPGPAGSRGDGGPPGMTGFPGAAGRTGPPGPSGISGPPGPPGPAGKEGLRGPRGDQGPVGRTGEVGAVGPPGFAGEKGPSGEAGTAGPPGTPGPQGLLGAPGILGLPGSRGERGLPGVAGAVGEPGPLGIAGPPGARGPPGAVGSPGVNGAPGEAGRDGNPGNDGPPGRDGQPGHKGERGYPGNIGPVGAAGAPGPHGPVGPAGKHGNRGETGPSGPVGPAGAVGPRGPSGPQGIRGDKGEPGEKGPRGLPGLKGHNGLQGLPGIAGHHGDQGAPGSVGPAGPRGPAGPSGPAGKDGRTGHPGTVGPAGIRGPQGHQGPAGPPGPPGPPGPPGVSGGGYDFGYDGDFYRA
Protocol: (§1) After purification and labeling, it was subjected to an enzyme-linked binding assay with the Immobilized human matrix proteins, collagen type 1, fibronectin and laminin.
(§2) Peroxidase-labeled Cpa-maltose binding protein fusion and recombinant purified maltose-binding protein (for control of specific binding of the bacteria) were added to the wells for 2 h at room temperature. Non-conjugated peroxidase at a 1:300 dilution in PBS-T was used as a negative control. […] All assays were repeated on at least three independent occasions.

human laminin = human laminin (human); test: as above
Protocol: as §1, §2

human fibronectin = target: T2, human fibronectin (human, UniProt P02751 32-2477, limits assumed); test: as above
T2 construct: Bought, immobilized on plates
T2 sequence (P02751 32-2477 limits assumed): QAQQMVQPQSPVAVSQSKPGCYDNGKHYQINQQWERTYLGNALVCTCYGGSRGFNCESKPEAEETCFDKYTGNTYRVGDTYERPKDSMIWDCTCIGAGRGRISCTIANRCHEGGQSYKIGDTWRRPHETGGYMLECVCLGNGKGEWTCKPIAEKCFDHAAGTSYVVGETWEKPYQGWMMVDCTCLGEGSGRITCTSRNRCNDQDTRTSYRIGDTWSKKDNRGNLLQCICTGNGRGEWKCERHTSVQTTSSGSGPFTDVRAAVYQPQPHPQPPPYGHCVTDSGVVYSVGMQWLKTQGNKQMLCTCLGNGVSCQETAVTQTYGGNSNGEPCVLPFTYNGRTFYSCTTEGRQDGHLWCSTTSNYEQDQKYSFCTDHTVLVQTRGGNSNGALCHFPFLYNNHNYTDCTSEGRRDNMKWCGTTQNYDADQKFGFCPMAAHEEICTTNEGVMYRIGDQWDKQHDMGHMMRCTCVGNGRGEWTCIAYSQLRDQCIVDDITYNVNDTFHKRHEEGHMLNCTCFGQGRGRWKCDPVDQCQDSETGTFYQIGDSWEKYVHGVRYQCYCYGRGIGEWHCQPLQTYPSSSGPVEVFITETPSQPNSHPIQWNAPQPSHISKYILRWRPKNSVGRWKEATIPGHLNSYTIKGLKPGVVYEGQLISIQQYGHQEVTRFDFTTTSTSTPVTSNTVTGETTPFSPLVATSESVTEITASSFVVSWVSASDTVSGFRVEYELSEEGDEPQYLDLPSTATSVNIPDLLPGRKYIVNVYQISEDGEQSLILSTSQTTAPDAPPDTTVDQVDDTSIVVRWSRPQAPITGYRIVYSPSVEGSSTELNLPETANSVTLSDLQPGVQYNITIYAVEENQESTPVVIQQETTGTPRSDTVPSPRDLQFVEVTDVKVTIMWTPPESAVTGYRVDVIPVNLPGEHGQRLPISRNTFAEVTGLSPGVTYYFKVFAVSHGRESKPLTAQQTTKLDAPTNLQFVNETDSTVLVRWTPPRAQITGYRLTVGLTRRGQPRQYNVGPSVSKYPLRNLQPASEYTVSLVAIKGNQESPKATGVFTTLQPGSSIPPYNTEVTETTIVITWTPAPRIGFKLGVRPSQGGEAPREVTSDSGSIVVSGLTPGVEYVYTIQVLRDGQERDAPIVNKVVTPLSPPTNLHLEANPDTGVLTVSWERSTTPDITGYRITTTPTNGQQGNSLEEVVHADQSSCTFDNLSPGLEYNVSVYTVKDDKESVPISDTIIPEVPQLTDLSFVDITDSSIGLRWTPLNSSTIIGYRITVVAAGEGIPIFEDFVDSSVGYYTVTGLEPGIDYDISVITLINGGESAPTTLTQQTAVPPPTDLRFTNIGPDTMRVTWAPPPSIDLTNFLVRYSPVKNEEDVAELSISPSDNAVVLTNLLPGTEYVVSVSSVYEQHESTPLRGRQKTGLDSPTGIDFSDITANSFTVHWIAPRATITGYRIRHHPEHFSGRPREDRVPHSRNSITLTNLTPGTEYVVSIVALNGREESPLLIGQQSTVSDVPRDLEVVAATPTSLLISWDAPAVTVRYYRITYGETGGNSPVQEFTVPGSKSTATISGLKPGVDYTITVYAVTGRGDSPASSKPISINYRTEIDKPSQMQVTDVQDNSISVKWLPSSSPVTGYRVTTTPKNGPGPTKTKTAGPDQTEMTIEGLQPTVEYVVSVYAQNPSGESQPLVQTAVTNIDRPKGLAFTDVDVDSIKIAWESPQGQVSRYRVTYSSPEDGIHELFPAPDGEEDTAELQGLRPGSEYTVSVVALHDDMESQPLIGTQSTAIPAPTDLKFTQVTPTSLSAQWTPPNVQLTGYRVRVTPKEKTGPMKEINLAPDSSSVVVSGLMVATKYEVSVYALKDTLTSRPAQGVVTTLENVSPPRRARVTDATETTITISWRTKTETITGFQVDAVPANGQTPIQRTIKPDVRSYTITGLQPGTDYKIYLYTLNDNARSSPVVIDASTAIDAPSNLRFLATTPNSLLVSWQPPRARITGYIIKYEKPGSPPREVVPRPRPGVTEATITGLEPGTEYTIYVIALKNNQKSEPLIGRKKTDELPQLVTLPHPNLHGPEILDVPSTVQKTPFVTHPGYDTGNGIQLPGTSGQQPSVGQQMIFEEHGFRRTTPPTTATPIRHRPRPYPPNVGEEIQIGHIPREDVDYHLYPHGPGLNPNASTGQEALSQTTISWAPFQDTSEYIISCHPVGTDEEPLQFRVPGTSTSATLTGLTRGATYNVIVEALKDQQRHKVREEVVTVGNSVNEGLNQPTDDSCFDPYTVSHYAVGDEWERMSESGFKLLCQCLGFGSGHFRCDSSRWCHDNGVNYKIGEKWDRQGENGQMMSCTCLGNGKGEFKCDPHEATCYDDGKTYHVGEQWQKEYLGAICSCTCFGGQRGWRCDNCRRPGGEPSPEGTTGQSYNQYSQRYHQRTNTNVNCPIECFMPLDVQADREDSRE
Protocol: as §1, §2

Sequence of BSA (bovine) (P02769 25-607 limits assumed): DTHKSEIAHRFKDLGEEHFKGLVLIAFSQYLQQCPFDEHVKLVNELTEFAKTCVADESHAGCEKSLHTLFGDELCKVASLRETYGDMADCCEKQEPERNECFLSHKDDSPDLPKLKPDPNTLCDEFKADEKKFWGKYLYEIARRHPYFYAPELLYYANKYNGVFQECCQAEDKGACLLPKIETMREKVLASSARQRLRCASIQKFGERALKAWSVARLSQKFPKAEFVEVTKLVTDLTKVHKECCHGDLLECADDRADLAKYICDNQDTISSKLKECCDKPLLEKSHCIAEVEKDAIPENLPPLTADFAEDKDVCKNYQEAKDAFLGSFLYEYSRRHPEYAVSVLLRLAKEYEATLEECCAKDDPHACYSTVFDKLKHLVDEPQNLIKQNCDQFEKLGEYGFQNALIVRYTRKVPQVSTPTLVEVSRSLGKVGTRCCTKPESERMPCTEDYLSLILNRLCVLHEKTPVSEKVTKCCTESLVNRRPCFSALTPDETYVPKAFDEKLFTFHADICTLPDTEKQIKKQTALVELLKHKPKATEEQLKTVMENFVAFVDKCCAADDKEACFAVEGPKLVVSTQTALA

B1: non-conjugated horseradish peroxidase (enzyme, UniProt P00433 31-338, looked up)
chain: QLTPTFYDNSCPNVSNIVRDTIVNELRSDPRIAASILRLHFHDCFVNGCDASILLDNTTSFRTEKDAFGNANSARGFPVIDRMKAAVESACPRTVSCADLLTIAAQQSVTLAGGPSWRVPLGRRDSLQAFLDLANANLPAPFFTLPQLKDSFRNVGLNRSSDLVALSGGHTFGKNQCRFIMDRLYNFSNTGLPDPTLNTTYLQTLRGLCPLNGNLSALVDFDLRTPTIFDNKYYVNLEEQKGLIQSDQELFSSPNATDTIPLVRSFANSTQTFFNAFVEAMDRMGNITPLTGTQGQIRLNCRVVNSNS
notes: Negative control; also called HRPO; HRPO (negative control)
With B1 as the binder, how does the OD492 (BSA (bovine)) read?
The OD492 was 0.028 OD492.

And the OD492 (human collagen type I)?
Its OD492 is 0.049 OD492.

And the OD492 (human laminin)?
Its OD492 is 0.038 OD492.

And the OD492 (human fibronectin)?
The OD492 was 0.038 OD492.
